Laboratory results taken from PMC11528121, “Structural basis of the bacterial flagellar motor rotational switching” (Cell Research, 2024).

B1: FlgC (natural protein)
chain: MALLNIFDIAGSALAAQSKRLNVAASNLANADSVTGPDGQPYRAKQVVFQVDAAPGQATGGVKVASVIESQAPEKLVYEPGNPLADANGYVKMPNVDVVGEMVNTMSASRSYQANIEVLNTVKSMMLKTLTLGQ
notes: FlgC, proximal rod protein of the flagellar basal body, Salmonella Typhimurium LT2; Subunit of the purified complex m8; 6 copies in the rod; also called FlgC^1; FlgC^6
B2: FliF (natural protein, UniProt P15928 1-560, looked up)
chain: MSATASTATQPKPLEWLNRLRANPRIPLIVAGSAAVAIVVAMVLWAKTPDYRTLFSNLSDQDGGAIVAQLTQMNIPYRFANGSGAIEVPADKVHELRLRLAQQGLPKGGAVGFELLDQEKFGISQFSEQVNYQRALEGELARTIETLGPVKSARVHLAMPKPSLFVREQKSPSASVTVTLEPGRALDEGQISAVVHLVSSAVAGLPPGNVTLVDQSGHLLTQSNTSGRDLNDAQLKFANDVESRIQRRIEAILSPIVGNGNVHAQVTAQLDFANKEQTEEHYSPNGDASKATLRSRQLNISEQVGAGYPGGVPGALSNQPAPPNEAPIATPPTNQQNAQNTPQTSTSTNSNSAGPRSTQRNETSNYEVDRTIRHTKMNVGDIERLSVAVVVNYKTLADGKPLPLTADQMKQIEDLTREAMGFSDKRGDTLNVVNSPFSAVDNTGGELPFWQQQSFIDQLLAAGRWLLVLVVAWILWRKAVRPQLTRRVEEAKAAQEQAQVRQETEEAVEVRLSKDEQLQQRRANQRLGAEVMSQRIREMSDNDPRVVALVIRQWMSNDHE
notes: FliF, MS ring protein, Salmonella Typhimurium LT2; RBM1, RBM2, RBM3, β-collar, C-terminal region FliFC; Subunit of the purified complex m8; 34 copies in the MS ring; also called FliFC; MS ring protein
B3: FliN (natural protein, UniProt P26419 1-137, looked up)
chain: MSDMNNPSDENTGALDDLWADALNEQKATTTKSAADAVFQQLGGGDVSGAMQDIDLIMDIPVKLTVELGRTRMTIKELLRLTQGSVVALDGLAGEPLDILINGYLIAQGEVVVVADKYGVRITDIITPSERMRRLSR
notes: FliN, flagellar motor switch protein of the C ring, Salmonella Typhimurium LT2; FliN1, FliN2 and FliN3 are the three copies in one protomer; Subunit of the purified complex m8; 102 copies in the C ring; also called FliN1; FliN2
B4: FliM (natural protein, UniProt P26418 1-334, looked up)
chain: MGDSILSQAEIDALLNGDSDTKDEPTPGIASDSDIRPYDPNTQRRVVRERLQALEIINERFARQFRMGLFNLLRRSPDITVGAIRIQPYHEFARNLPVPTNLNLIHLKPLRGTGLVVFSPSLVFIAVDNLFGGDGRFPTKVEGREFTHTEQRVINRMLKLALEGYSDAWKAINPLEVEYVRSEMQVKFTNITTSPNDIVVNTPFHVEIGNLTGEFNICLPFSMIEPLRELLVNPPLENSRHEDQNWRDNLVRQVQHSELELVANFADIPLRLSQILKLKPGDVLPIEKPDRIIAHVDGVPVLTSQYGTVNGQYALRVEHLINPILNSLNEEQPK
notes: FliM, flagellar motor switch protein of the C ring, Salmonella Typhimurium LT2; domains FliMN, FliMM, FliMC; Subunit of the purified complex m8; 34 copies in the C ring; also called FliMN; FliMM
B5: FliG (natural protein, UniProt P0A1J9 1-331, looked up)
chain: MSNLSGTDKSVILLMTIGEDRAAEVFKHLSTREVQALSTAMANVRQISNKQLTDVLSEFEQEAEQFAALNINANEYLRSVLVKALGEERASSLLEDILETRDTTSGIETLNFMEPQSAADLIRDEHPQIIATILVHLKRSQAADILALFDERLRHDVMLRIATFGGVQPAALAELTEVLNGLLDGQNLKRSKMGGVRTAAEIINLMKTQQEEAVITAVREFDGELAQKIIDEMFLFENLVDVDDRSIQRLLQEVDSESLLIALKGAEPPLREKFLRNMSQRAADILRDDLANRGPVRLSQVENEQKAILLIVRRLAETGEMVIGSGEDTYV
notes: FliG, flagellar motor switch protein of the C ring, Salmonella Typhimurium LT2; domains FliGN, FliGM, FliGCN, FliGCC; Subunit of the purified complex m8; 34 copies in the C ring; also called FliGN; FliGM
B6: CheY D13K/Y106W (constitutively active double mutant) (natural protein)
chain: MADKELKFLVVDKFSTMRRIVRNLLKELGFNNVEEAEDGVDALNKLQAGGFGFIISDWNMPNMDGLELLKTIRADSAMSALPVLMVTAEAKKENIIAAAQAGASGWVVKPFTAATLEEKLNKIFEKLGM
notes: CheY, chemotaxis signal protein, gene amplified from genomic DNA of Salmonella enterica serovar Typhimurium LT2; double mutant D13K/Y106W; Tag linked through an HRV3C protease site; residues of the site may remain at the C-terminus after cleavage; Vector pET-14b; source: E. coli BL21 (DE3), purified (Streptactin column, PreScission protease digestion, Superdex 75); not shown: Twin-Strep-tag II, …
B7: FliE (natural protein, UniProt P26462 1-104, looked up)
chain: MAAIQGIEGVISQLQATAMAARGQDTHSQSTVSFAGQLHAALDRISDRQAAARVQAEKFTLGEPGIALNDVMADMQKASVSMQMGIQVRNKLVAAYQEVMSMQV
notes: FliE, rod protein of the flagellar basal body, Salmonella Typhimurium LT2; Subunit of the purified complex m8; 6 copies in the rod; also called FliE^6

Key:
FliF [1] = biological target: B2; assay: cryo-EM structure; basal body–hook complex in the default CCW state purified from S. Typhimurium ΔfliCD in TET buffer (10 mM Tris-HCl pH 8.0, 5 mM EDTA, 0.1% Triton X-100); C ring C34 map 5.9 Å, four protomers 4.0 Å, whole complex 7.4 Å, local maps 3.0–4.3 Å; settings: both partners purified
[2] = biological target: the molecule itself; assay: as above
FliM [3] = biological target: B4; assay: as above; settings: both partners purified
FliF [4] = biological target: B2; assay: cryo-EM structure; 5 μL purified CCW basal body–hook complex mixed with 1 μL CheY** (2 mg/mL), 15 min at room temperature, 1.5 h on ice; CW state; C ring C34 map 5.6 Å, four protomers 4.4 Å, whole complex 4.3 Å, local maps 2.8–3.8 Å; settings: both partners purified
FliM [5] = biological target: B4; assay: as above; settings: both partners purified
[6] = biological target: T1, C ring-containing flagellar basal body–hook complex in the default CCW state (Salmonella enterica serovar Typhimurium …, UniProt P0A1J9 1-331; P26418 1-334; P26419 1-137; P15928 1-560; P54700 22-245; P54702 …); assay: as above; settings: both partners purified
T1 construct: FliG, C ring, Salmonella Typhimurium LT2; FliM, C ring, Salmonella Typhimurium LT2; FliN, C ring, Salmonella Typhimurium LT2; FliF, MS ring, Salmonella Typhimurium LT2; FliP, export apparatus, Salmonella Typhimurium LT2; FliR, export apparatus, Salmonella Typhimurium LT2; FliQ, export apparatus, Salmonella Typhimurium LT2; FliE, rod, Salmonella Typhimurium LT2; FlgB, rod, Salmonella Typhimurium …

B1: binds (FliF [1]).

In the case of B2, the “stoichiometry N” value [2] is reported as 34.

With B3 the “stoichiometry N” value (FliM [3]) was 3 and the binding result [2] was “binds”.

In the case of B4, the “stoichiometry N” value [2] is reported as 34.

With B5 the binding result (FliF [4]) was “binds”, the “stoichiometry N” value (FliM [3]) was 1 and the “stoichiometry N” value [2] was 34.

B6 was tested, and the binding result (FliM [5]) was “binds” and the “stoichiometry N” value [6] was 34.

B7: binds (FliF [1]).
